From US20220251227A1 (Eli Lilly, published 2022)

T1: human GITR (human, UniProt Q9Y5U5 26-241)
T1 sequence: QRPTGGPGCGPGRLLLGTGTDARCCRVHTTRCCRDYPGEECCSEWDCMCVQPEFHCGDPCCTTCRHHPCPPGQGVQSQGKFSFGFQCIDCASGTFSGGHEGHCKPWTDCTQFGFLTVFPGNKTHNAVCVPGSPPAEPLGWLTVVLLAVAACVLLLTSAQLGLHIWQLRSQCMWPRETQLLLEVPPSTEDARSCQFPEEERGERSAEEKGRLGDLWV

B1: Antibody I (Fab)
heavy: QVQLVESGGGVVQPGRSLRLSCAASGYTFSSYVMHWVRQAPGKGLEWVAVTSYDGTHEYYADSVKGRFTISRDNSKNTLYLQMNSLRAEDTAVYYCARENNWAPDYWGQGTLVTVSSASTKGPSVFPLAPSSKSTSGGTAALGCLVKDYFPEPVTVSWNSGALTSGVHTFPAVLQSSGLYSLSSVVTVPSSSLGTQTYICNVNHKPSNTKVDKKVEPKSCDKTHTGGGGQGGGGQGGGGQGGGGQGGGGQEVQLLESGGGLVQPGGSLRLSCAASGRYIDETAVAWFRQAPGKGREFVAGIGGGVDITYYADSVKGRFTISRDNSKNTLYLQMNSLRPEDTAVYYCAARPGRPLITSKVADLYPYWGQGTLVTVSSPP
light: DIQMTQSPSSLSASVGDRVTITCRASQDISNSLAWYQQKPGKAPKRLIYAAFSLQSGVPSRFSGSGSGTEFTLTISSLQPEDFATYYCYQYYNYPSAFGQGTKLEIKRTVAAPSVFIFPPSDEQLKSGTASVVCLLNNFYPREAKVQWKVDNALQSGNSQESVTEQDSKDSTYSLSSTLTLSKADYEKHKVYACEVTHQGLSSPVTKSFNRGEC
notes: Monovalent anti-GITR Fab; also called HC anti-GITR Fab-VHH Fusion 1 with LC
B2: Antibody II (Fab)
heavy: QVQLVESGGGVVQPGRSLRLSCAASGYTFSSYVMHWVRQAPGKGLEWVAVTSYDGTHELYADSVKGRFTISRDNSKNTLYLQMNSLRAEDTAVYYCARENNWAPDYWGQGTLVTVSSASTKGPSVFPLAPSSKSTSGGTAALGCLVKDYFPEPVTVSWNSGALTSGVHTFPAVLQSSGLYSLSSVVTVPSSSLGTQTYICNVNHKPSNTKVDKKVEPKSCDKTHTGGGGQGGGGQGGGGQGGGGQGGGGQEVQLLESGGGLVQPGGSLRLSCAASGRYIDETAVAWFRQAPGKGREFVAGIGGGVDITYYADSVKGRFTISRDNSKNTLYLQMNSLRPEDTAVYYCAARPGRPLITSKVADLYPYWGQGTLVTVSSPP
light: DIQMTQSPSSLSASVGDRVTITCRASQDISNSLAWYQQKPGKAPKRLIYAAFSLQSGVPSRFSGSGSGTEFTLTISSLQPEDFATYYCYQYYNYPSAFGQGTKLEIKRTVAAPSVFIFPPSDEQLKSGTASVVCLLNNFYPREAKVQWKVDNALQSGNSQESVTEQDSKDSTYSLSSTLTLSKADYEKHKVYACEVTHQGLSSPVTKSFNRGEC
notes: Monovalent anti-GITR Fab; also called HC anti-GITR Fab-VHH Fusion 2 with LC

Key:
human GITR [1] = molecular target: T1, human GITR; assay: cell-based or functional assay
Mouse serum albumin = molecular target: T2, Mouse serum albumin (mouse, UniProt P07724 25-608); assay: SPR, Biacore 8K, albumin immobilized on CM5, 25 C, 1:1 model
T2 construct: Bought protein, immobilized on a CM5 chip by amine coupling; also called Mouse SA
Method: (§1) Binding of Antibody I and Antibody II to various serum albumins is carried out on Biacore 8K instrument. The immobilization of the serum albumin to a Series S Sensor Chip CM5 (Cytiva 29149603) surface is performed according to the manufacturer's instructions (Amine Coupling Kit BR-1000-50). Briefly, carboxyl groups on the sensor chip surfaces (flow cell 1 and 2) are activated by injecting 70 μL of a mixture containing 75 mg/ml 1-Ethyl-3-(3-dimethylaminopropyl) carbodiimide hydrochloride (EDC), and 11.5 mg/ml N-Hydroxysuccinimide (NHS) at 10 μl/min. Human, cynomolgus monkey, rat, mouse, dog, pig, cow, and rabbit serum albumin are diluted in 10 mM sodium acetate pH 4.0 (BR-1003-49) at 0.8, 0.8, 0.8, 2.5, 0.8, 1, 1, and 1.5 μg/m1 then injected over the activated chip surfaces (flow cell 2, channel 1 to 8) at 10 μl/min for 100 seconds. Human serum albumin was obtained from Sigma Aldrich (St. Louis, Mo.) (Cat. No. A8763).
(§2) The serum albumins are covalently immobilized through free amines onto a carboxymethyl dextran-coated sensor chip CM5 at surface densities of 29-52 resonance units (RU) for human, cynomolgus monkey, rat, mouse, dog, pig, and cow as well as 118 resonance units (RU) for rabbit serum albumin. Excess reactive groups on the surfaces (flow cell 1 and 2) are deactivated by injecting 70 μl of 1 M Ethanolamine hydrochloride-NaOH pH 8.5.
(§3) The antibodies of Examples 1 and 2 (i.e., Antibody I and II, respectively) are diluted in HBS-EP+buffer (10 mM HEPES pH 7.6, 150 mM NaCl, 3 mM EDTA, 0.05% Polysorbate 20) at concentrations of 1000, 333.3, 111.1, 37.04, 12.35, 4.12, 1.37, 0.457, 0.152, 0.051 and 0.017 nM. 180 μl of sample are individually injected sequentially across the immobilized serum albumins on the chip's surface and dissociated for 600 sec at 60 μl/min flow rate at 25° C. The surface is regenerated by injecting 10 mM glycine-HCl pH 1.5 (BR-1003-54) at 60 μl/min for 100 sec. The resulting sensorgrams are analyzed using Biacore 8K Insight Evaluation Software (version 3.0.11.15423) 1:1 binding kinetics model fitting to calculate the binding kinetic parameters: association rate (ka), dissociation rate (kd), and equilibrium dissociation constant (KD).

Pig serum albumin = molecular target: T3, Pig serum albumin (pig, UniProt P08835 25-607); assay: as above
T3 construct: Bought protein, immobilized on a CM5 chip by amine coupling; also called Pig SA
Method: as §1, §2, §3

Rat serum albumin = molecular target: T4, Rat serum albumin (rat, UniProt P02770 25-608); assay: as above
T4 construct: Bought protein, immobilized on a CM5 chip by amine coupling; also called Rat SA
Method: as §1, §2, §3

[2] = molecular target: T5, Cynomolgus monkey serum albumin (cynomolgus monkey, UniProt A2V9Z4 25-608); assay: as above
T5 construct: Bought protein, immobilized on a CM5 chip by amine coupling; also called Cyno SA
Method: as §1, §2, §3

Human serum albumin = molecular target: T6, Human serum albumin (human, UniProt P02768 25-609); assay: as above
T6 construct: Bought protein, immobilized on a CM5 chip by amine coupling; also called Human SA
Method: as §1, §2, §3

Cow serum albumin = molecular target: T7, Cow serum albumin (cow, UniProt P02769 25-607); assay: as above
T7 construct: Bought protein, immobilized on a CM5 chip by amine coupling; also called Cow SA
Method: as §1, §2, §3

Dog serum albumin = molecular target: T8, Dog serum albumin (dog, UniProt P49822 25-608); assay: as above
T8 construct: Bought protein, immobilized on a CM5 chip by amine coupling; also called Dog SA
Method: as §1, §2, §3

Rabbit serum albumin = molecular target: T9, Rabbit serum albumin (rabbit, UniProt P49065 25-608); assay: SPR, Biacore 8K, albumin immobilized on CM5, 25 C
T9 construct: Bought protein, immobilized on a CM5 chip by amine coupling at 118 RU; also called Rabbit SA
Method: as §1, with “Human serum albumin was obtained from Sigma Aldrich (St. Louis, Mo.) (Cat. No. A8763).” left out
The antibodies of Examples 1 and 2 (i.e., Antibody I and II, respectively) are diluted in HBS-EP+buffer (10 mM HEPES pH 7.6, 150 mM NaCl, 3 mM EDTA, 0.05% Polysorbate 20) at concentrations of 1000, 333.3, 111.1, 37.04, 12.35, 4.12, 1.37, 0.457, 0.152, 0.051 and 0.017 nM. […] The resulting sensorgrams are analyzed using Biacore 8K Insight Evaluation Software (version 3.0.11.15423) 1:1 binding kinetics model fitting to calculate the binding kinetic parameters: association rate (ka), dissociation rate (kd), and equilibrium dissociation constant (KD).

cynomolgus monkey GITR [3] = molecular target: T10, cynomolgus monkey GITR (cynomolgus monkey); assay: flow cytometry on Jurkat cyno GITR/NFkBluc cells, anti-kappa PE detection, geometric mean of 3
T10 construct: whole, on cells; Stood on Jurkat cyno GITR/NFkBluc cells; also called cyno GITR
Method: Jurkat human GITR/NFkB-Luc2 and Jurkat cynomolgus monkey GITR/NFkBluc cells are resuspended in FACS buffer (PBS+1% BSA+0.01% sodium azide) at 1 million cells/mL and 5 μl Fc block/mL (BioLegend) is added and incubated at 4° C. for 20 min. Cells are washed with FACS buffer and resuspended at 1e6 cells/mL in FACS buffer and added to a polypropylene 96-well plate at 100 μl/well for 100,000 cells/well. 100 μl/well of 2X antibody dose titrations diluted in FACS buffer are added to cells and incubated 45 minutes at 4° C. Cells are washed twice with 200 μl/well FACS buffer and resuspended in 12.5 μg/mL anti-human Ig light chain kappa/PE secondary antibody (Invitrogen #PA1-74408) in FACS buffer and incubated for 45 minutes at 4° C. Cells are washed twice with 200 μl/well FACS buffer and resuspended in 200 μl FACS buffer. Samples are read on a Millipore EasyCyte Cytometer and median fluorescence intensity values are calculated using GuavaSoft 3.3 InCyte software. EC₅₀ values are calculated for each of 3 experiment replicates and the EC₅₀ Geometric Mean +/−Error (Delta Method) is calculated from these 3 results. The cell binding results shown in Table 5 indicate that both Antibody I and Antibody II bind potently to human GITR and cynomolgus monkey GITR (“cyno GITR”).

human GITR [4] = molecular target: T1, human GITR; assay: cell-based or functional assay; remark: listed apart in the source
cynomolgus monkey GITR [5] = molecular target: T10, cynomolgus monkey GITR; assay: cell-based or functional assay
human GITR [6] = molecular target: T1, human GITR; assay: cell-based or functional assay; remark: listed apart in the source
human GITR [7] = molecular target: T1, human GITR; assay: flow cytometry on Jurkat human GITR/NFkB-Luc2 cells, anti-kappa PE detection, geometric mean of 3
Method: Jurkat human GITR/NFkB-Luc2 cells (CS184004) were purchased from Promega and maintained in RPMI1640 media+10% FBS (HyClone SH30070.3)+400 μg/mL hygromycin B+600 μg/mL G418.
Jurkat human GITR/NFkB-Luc2 and Jurkat cynomolgus monkey GITR/NFkBluc cells are resuspended in FACS buffer (PBS+1% BSA+0.01% sodium azide) at 1 million cells/mL and 5 μl Fc block/mL (BioLegend) is added and incubated at 4° C. for 20 min. Cells are washed with FACS buffer and resuspended at 1e6 cells/mL in FACS buffer and added to a polypropylene 96-well plate at 100 μl/well for 100,000 cells/well. 100 μl/well of 2X antibody dose titrations diluted in FACS buffer are added to cells and incubated 45 minutes at 4° C. Cells are washed twice with 200 μl/well FACS buffer and resuspended in 12.5 μg/mL anti-human Ig light chain kappa/PE secondary antibody (Invitrogen #PA1-74408) in FACS buffer and incubated for 45 minutes at 4° C. Cells are washed twice with 200 μl/well FACS buffer and resuspended in 200 μl FACS buffer. Samples are read on a Millipore EasyCyte Cytometer and median fluorescence intensity values are calculated using GuavaSoft 3.3 InCyte software. EC₅₀ values are calculated for each of 3 experiment replicates and the EC₅₀ Geometric Mean +/−Error (Delta Method) is calculated from these 3 results. […]

Row | Binder | IC50 nM Mean, restoration of regulatory T cell suppression of effector T cell proliferation in the presence of GITRL (human GITR [1]) [nM] | Kd (Mouse serum albumin) [nM] | koff (Mouse serum albumin) [s⁻¹] | kon (Mouse serum albumin) [M⁻¹ s⁻¹] | Kd (Pig serum albumin) [nM] | koff (Pig serum albumin) [s⁻¹] | kon (Pig serum albumin) [M⁻¹ s⁻¹] | Kd (Rat serum albumin) [nM] | koff (Rat serum albumin) [s⁻¹] | kon (Rat serum albumin) [M⁻¹ s⁻¹] | Kd [2] [nM] | koff [2] [s⁻¹] | kon [2] [M⁻¹ s⁻¹] | Kd (Human serum albumin) [nM] | koff (Human serum albumin) [s⁻¹] | kon (Human serum albumin) [M⁻¹ s⁻¹] | Kd (Cow serum albumin) [nM] | koff (Cow serum albumin) [s⁻¹] | kon (Cow serum albumin) [M⁻¹ s⁻¹] | Kd (Dog serum albumin) [nM] | further results
1 | B1 | 4.69 | 53 | 0.0094 | 180000 | 100 | 0.013 | 120000 | 44 | 0.007 | 160000 | 4.4 | 0.00082 | 190000 | 0.25 | 6.5e-05 | 260000 | 460 | 0.091 | 200000 | 20 | koff (Dog serum albumin): 0.0035 s⁻¹; kon (Dog serum albumin): 170000 M⁻¹ s⁻¹; binding result (Rabbit serum albumin): no binding (tested: 1000 nM highest concentration tested); EC50 (cynomolgus monkey GITR [3]): 3.06 nM; IC50 nM GeoMean, inhibition of GITRL stimulation of Jurkat GITR/NFkB luciferase cells (human GITR [4]): 4.1 nM; IC50 nM GeoMean, inhibition of GITRL stimulation of Jurkat GITR/NFkB luciferase cells (cynomolgus monkey GITR [5]): 2.27 nM; IC50 nM GeoMean, inhibition of GITRL co-stimulation of T cell proliferation (human GITR [6]): 4.76 nM; EC50 (human GITR [7]): 6.8 nM
2 | B2 | 2.72 | 42 | 0.0096 | 230000 | 99 | 0.012 | 120000 | 51 | 0.0073 | 140000 | 5.9 | 0.00087 | 150000 | 0.4 | 7.8e-05 | 190000 | 430 | 0.087 | 200000 | 20 | koff (Dog serum albumin): 0.0034 s⁻¹; kon (Dog serum albumin): 170000 M⁻¹ s⁻¹; binding result (Rabbit serum albumin): no binding (tested: 1000 nM highest concentration tested); EC50 (cynomolgus monkey GITR [3]): 2.34 nM; IC50 nM GeoMean, inhibition of GITRL stimulation of Jurkat GITR/NFkB luciferase cells (human GITR [4]): 1.68 nM; IC50 nM GeoMean, inhibition of GITRL stimulation of Jurkat GITR/NFkB luciferase cells (cynomolgus monkey GITR [5]): 1.26 nM; IC50 nM GeoMean, inhibition of GITRL co-stimulation of T cell proliferation (human GITR [6]): 1.84 nM; EC50 (human GITR [7]): 3.25 nM
